Laboratory results from the DeepSol protein solubility set.

Experiment: soluble on expression in E. coli; label from the status in PepcDB or PDB records

Soluble on expression in E. coli, not soluble:
MGSDKIHHHHHHMKIGDKVRFLSEVGGGIVTGFKGKDFVLVEDADGFDIPMPIRECVVIEADDYNIKRKPAATAPKQEEPAKPAKPEMPVIQRQPEVRGGDTLNVFLAYVPEDAKAMMTTPFEAYLVNDSNYYLYYTYLSAEGKAWNNRSHGLVEPNTKLLLEEFTKDVLNEMERVAVQLIAFKDGKPAAIKPAVSVELRIDTVKFYKLHTFSASDFFEEPALIYDIVKDDVPAKQVYVSAEEIQSALLQKKFVDKPKSQPIMKPNHGQSGKNGIIEVDLHIDSLLDDTHGMSNSEILNYQLDKFREVIEANKEKREQKVVFIHGKGDGVLRKAIIDELKRKHSNYRYQDASFQEYGFGATMVTIK, MGSDKIHHHHHHMKIGIVGLGRVGSSTAFALLMKGFAREMVLIDVDKKRAEGDALDLIHGTPFTRRANIYAGDYADLKGSDVVIVAAGVPQKPGETRLQLLGRNARVMKEIARNVSKYAPDSIVIVVTNPVDVLTYFFLKESGMDPRKVFGSGTVLDTARLRTLIAQHCGFSPRSVHVYVIGEHGDSEVPVWSGAMIGGIPLQNMCQICQKCDSKILENFAEKTKRAAYEIIERKGATHYAIALAVADIVESIFFDEKRVLTLSVYLEDYLGVKDLCISVPVTLGKHGVERILELNLNEEELEAFRKSASILKNAINEITAEENKHQNTSG, MGSDKIHHHHHHMKIKAIITGATGMVGEGVMHECLLNPDVEEVLIINRKPSGFTHAKLKEIIHTDFFNLAPVEQQLAGYNACYFCLGVSSIGMNEADYTKMTYTLTMHVAETLSRLNKDMTFCYVSGASTDSTEKGKSMWARVKGKTENDLTRLPFKDVYNFRPGYMQPTPGLKNTQKYYTYMSWMYPFLKLVFKNYVSTLKDVGLAMIRVTLFGHNKQVLEVPDIKALAKKTQFV, MGSDKIHHHHHHMKIKKYVAESIREAMIMIRRELGENAVILSSRRIKKGGFFGIGGKTYFEVTAAVEEERKKEENTSYRLQEILVKNRQSSNDNIKGEFDEIKRTINEIKQMLVTEKRQTLPEGLSKILYGMEKQEILPEIRYKLIDFLKMKFGDLDPNSNETFKILSEQFVNLVKTNAPDFKNAKVLFVGTTGVGKTTSLAKLAARFKIDEKKRVAILTLDTYRIAAAEQLKIYADIMDIPMKIAYTPKEAEYEMMALKDYDIVLVDTAGRSHQNDLQMSELRALSEAVKPNITFLVLSMNYKLDDMKRIVERFSAVKPTHIILTKMDETSVYGTFVNISEITGLPIAFVTNGQRVPDDIFEANPVELARIVAGEVLNHARSSGTSEKE, MGSDKIHHHHHHMKILFLADEESKMYWEYFKKEDFKGIDIIVSCGDLNPSYLSFLTTMVGVPLLYVHGNHDDKYNVKPPEGCICIEDEIYEYEGVRFLGLGGSNRYKPGENQYTQKEMTKRVKKLWWKLKRKNGFDVLVTHSPAKGLHDGEDTCHTGFDVFNRLIEQYKPRYFVHGHVHMSYGRQFVRLDKVGETTVINAYEKYIVEI, MGSDKIHHHHHHMKITTKQVGARMREARKKKKYTLRYLANKIGLSSGSTISNWELGLNLPNKRYLKKIAKACDTTVDWLLYGDFDRFVRQLLKENFQNKQLLKPPFFTQLMGRLSEEQLSYHDSLKIMIQAQKLQQSFYAFPLTVEAPSHSQESISIYEPTTAEEQSDQSYYHPFILSELHELFTHSQNPELDYSLIIAFLPLLKVDQLTEPQKEVLLAIFKRMNSFKDQTLLNEFFVELQYLL, MGSDKIHHHHHHMKKETKHFRALLADNALYYIYSNISAPLSLQELAKEAGVSAHHFHRIFKEEQGQNLYETIKSIRLQKAANLLLSNHYSTISEVAQLCGYSSSASFIKAFKGRFHLTPREWRHGGHRQYAKEILSTSSAAMASQRSFLGLEPTIKKIPAFRAVYLRHKGYNKSIALSWQKLMAWGFEHQISSQARQIGIHHDNPSITPLAECRYIAALEVEEGFRAQGLLGVMEFPPTLCAVFEVQGRYGDVLGLIDYVYHEWLPQSGYEAKTIPAFALYQKNHFLDPLGNFQLDFCLPVGVV, MGSDKIHHHHHHMKKIIIVSCLMSGVLNFGYSITTESIPTCSSFLSKLLSTAKSDTLSKVKLENCTFEEFKNNYDKDKFPVEFRNNQEEKSFYRHLKERDNYAGISNLYDMWKWVRFNRGFLEQQNEKLFHVYDKLNEVGINPESLDSMSYLNLKGINENINALTESINPSVEAIKYLLPDFEKYVAAYEKLAKEGDSLSYSDFKKASGRGATTANIQQIDQRILHQFRKEMHMNTANTAAMSSLNFGNGYGVSVGAAIGGHKGQYSLALGTAYTDYQTQVNVKIALPVKQPKPSNITYGVGFVYNFQ, MGSDKIHHHHHHMKKKIIHTLVYNYEIPVSLEEHLICLKPRSNSFQELSNFDLQIFPSPYSIFPLLSDNGDDIFKLLFTGSTNSLKIKTESDIETNIHPDLYQLKNDYDLSLPLKIESNDSLIGFIKGWFPNGQHDPAAIRIAQEALAGINNNVLDFLYHLIELIKDRVKYTPRHIGPAWTSGRTLSERVGSCRDLAILLMETCRCVGIPSRFVSGYQFMDQAPDKYELHAWTEVYIPGFGWRGFDPSGCGLINHNYVALASSSKSELVAPLRGSFVGPSNLKSELEWKIDIT, MGSDKIHHHHHHMKKKTTTVYVDKQYKLTRDVAPLSFMLPIKHSRRFPLLHFDESTGTNRELRYARNQKSPFVDKQDGNALLEPVIFEDGFLFVKKENQVLQQFLHYHPLNGTKFVEVDKSKDAAQVVDQLMIEADALVEAKKLSLEQLENVCRVLFNTNVDKLTTAEMKRDVLVFAKNNPQDFLDICSDPELKIMGMVQSFFDKGHLAYRKSKKEVWYNTPTNKTKMLNVPFGADGLDLVVSYLQSDEGIDVLKHLETL, MGSDKIHHHHHHMKKLDLDVLAMVVAVAESGSFAQGAQAVHRSPSAVSMQIKALEDALGKPLFIRDTRNVTATDDGRMLAEYGRRMLAMRDEAWASVVRPEIRGRVTIGVPDDYISSLLPQVLGKFAAMHPRVEVRVIGQPSSALVPMLKDNTVDLACLTRIKGVTGELIRMEPLVWVGSPKRNVWEERPLPVAFFTHGGSMARDHAVKALNRRKIPYRMSYESPSHLGLLSMVEAGLAVAPLARCCIPDHLVQLSESHGLPSLGELEVVLARSAKSARPPCDYLAEQILDEWRT, MGSDKIHHHHHHMKKLLLPLIIMLLVLAACGNQGEKNNKAETKSYKMDDGKTVDIPKDPKRIAVVAPTYAGGLKKLGANIVAVNQQVDQSKVLKDKFKGVTKIGDGDVEKVAKEKPDLIIVYSTDKDIKKYQKVAPTVVVDYNKHKYLEQQEMLGKIVGKEDKVKAWKKDWEETTAKDGKEIKKAIGQDATVSLFDEFDKKLYTYGDNWGRGGEVLYQAFGLKMQPEQQKLTAKAGWAEVKQEEIEKYAGDYIVSTSEGKPTPGYESTNMWKNLKATKEGHIVKVDAGTYWYNDPYTLDFMRKDLKEKLIKAAK, MGSDKIHHHHHHMKKQPSATVNQEKESELIEGLMSNDDLAYETLVRQYSAKMYAVARRFFCTNDDAQECLQKAFIQVFKNITSFKQNSNLSTWLHRITVNEALMMLRQRKRQNTTSLEEFAQHYNEYGERTVFADNLGNNLNNNLGTILGGNVETLFEKTETKLSLNDIIFQLPEKYCNVLLLRDIQEISTKETAEILAISESLVKTQLHRARLLLKAILEQDDKDNLESNWKVNSHVND, MGSDKIHHHHHHMKKSLIELLEARQKATDELAEVKLKKATIEAKMKSSTIEDDDLEQLKTDAESLVSQATAIKETIAGLDSDIEETEEELSKAAKIIKEKQKGNTPMDYLKTKAAALDFVRILMDNEGSANSARKAWEANLVEKGVTNLTKILPEPVLIAIQDAFTNYNGILNHVSKDPRYAVRVALQTQVSQAKGHKAGKTKKDEDFTFLDFTINSATVYIKYAFEYSDLKKDTTGAYFNYVMKELAQGFIRTIERAVVIGDGKSNSAEDKITEIKSIAEETEANLFETQEINVAGVFDNAVLETLVAGIDKMVPNTTPILVTSKAIARKLKLVKDAEGRYIDPQPFAPIATNGNVIAGFQVYIYDWMDGATNPIIAFADQAYKMIGDEAAADRFDDYDVTVNRRHIELASVMGGRLAQYKSAVKFTNPAG, MGSDKIHHHHHHMKKTIILSDENYYSQEADLAYMSVSQYKKFLECEAAALAKLKGEWTPENDPKALLVGNYVHSYFESPEIHEAFKEENKSKMFSSRKPFGLLKDFQIAEQMIERLKQEEAFLNIYQGEKEVIVTGEIGGAMWKGKIDCLNLEEKYFVDIKTTKDMHEKKWDERLNRKANFIERFGYVLQMAVYCELLRQQYDKIFLPLIAAVSKQTPSEAKLITLSEEKMIYELEELKENIEHVVRVKNGEEEPVSCGICEYCRGHNKITNFTSMDDL, MGSDKIHHHHHHMKKVVVGLSGGVDSSTAAAILHNQGYEVIGLTLWLMKGKGQCCSEGMIDAAYICEQLGIPHEVVDMRDVFQTHIVDYLVTGYGAGITPLPCSQCNKTVKFGPMVQYAREQLGCDRIATGHYARISYDEASGRYQLLRAVDRNKDQSYFLYDLSQDLLAASLFPLGEMEKADTRRIATEHGLKTADKPESQDLCLVESNGSMRAFLDKYIAPKKGDIVDTAGKILGQHDGVHHYTIGQRKGLGIAAPEPLYVVELDAVNNKVVVGDRTKATQEECTVSRVNWVSIPEPSTPIRAAVQIRYRSAPEPVTVIPLENSRVRLVFDEPQFSITPGQAAVWYDGDKVLGGGIIEQFSN, MGSDKIHHHHHHMKLGYCSITWGGVVGHPGGVTSVKDLFYLTHGSMKDAIHDIASVGYEGVEMFDGNLAEYADKPEVLKELLNSSGVSLTSVYTGANFIYADILPDELHRIHRSAELAANFGADRLVVGGGARRAAGTTDEDYHRLGRALDSVTDIAESFGLSASYHPHLTTIVESPDELDKLMPLTRIGFCPDTAHLAAGGADPAAVIRKYPDRIRHVHLKDFRQDPFTFLPLGQGELDFPDILAAIRESGYDSWLMVELDNYDGDPREAAELSMKYLEKLL, MGSDKIHHHHHHMKLLLTSGGIQNDSQRRALVDLLGKPIEEAHALCIPTAVYGMKEGPYHAYLFITGTGSTPMCELGFQSVGVLELTALPILDESLWVPLVEQADVLLVNGGDPLFLNYWMKKSGLADRLPSLKAVYVGLSAGSMVLTPRIGHAFVEWTAPHTTTDETLGLVEFSIFPHLDHELLPENTLDEAVKWAADLTGPSYAIDDQTAIQVVDGVVKVISEGHWKRFD, MGSDKIHHHHHHMKLLSVVKIWDRGDHNAFTDLIRFDGKLYCAFREGSAHVSPDGALRILVSEDDGSSWKEAALIKLDEGDLRDARLLVWLGELYLFGARAIAGEPLQSLMWRSSDGCRWQAAEHCADTGYWLWRVIADNNEQSVSRAPALYGVAYRPGPDGDVRLYRAAPQGPLKGTDFIPLVAALNSEGYVNETGLEITDGIFTCLLRRDPVWDDRRNGLLGKAKAPFMDWQWLELDCRIGGPVVFRWCNRLLAIVRLYDEKVRTSLVEICETTGHVAEHLSLPSGGDTSYAGVVMEHSVKGDELKVSYYSSHEGKTAIYFAAIRLE, MGSDKIHHHHHHMKLNHRQLEAFRAMIETGSVTEASKRIGVTQPAASRLISDLEYAIGYALFLREKKRLTPTPEAMALFEEVDRSYIGLGLIGDAARDIGANRRGALRIASLPAMALSFLPKVISKFCEDKPDISVDMQIHSSQRVIQCVASQQFDLGFAEIDSLHPAVKSQAFFESPMVAILPKHHPLCRKATLTPQDFSNENFIALGSNYTMRKRIDALFLANNITRKIQIETQLSMAVANLVASGAGVSIIEALTASSFRGLNLVEARPFLPEITYTYRVLSPAHRPISLLTASFINATRDALMKFDVSGHAL
